{
  "source": "paper PMC2217671",
  "proteins": {"B1": {"name": "recombinant E. histolytica putative ornithine decarboxylase (ODC)-like protein (Entamoeba histolytica) (protein)", "chain": "MKQTSLEVKEFALNLISQFEPENQPLGFWIFDTEGVEKAVERWKKNMPTVRPCFAVKCNPEPHLVKLLGELGCGFDCASLNEIKEVLDLGFNPEDITYSQTFKPYNQLIEASHLGINHTIVDSIDEVQKIAKYAPKMGIMIRIMENDTSAGHVFGEKFGLHDDEVEIVLKEIKDKGLNLDGVHFHVGSDSHNSEVFTKALTKARNTVTLAEQFGMKPYLIDIGGGFSQVAPFEEFAATIEKTIKELEFPERTRFIAEPGRYMASNAFHLVSSLHGKRVRIQNGKKQIEYTSGDGLHGSFGCCIWFEKQKSCECITQKVNENTKMYESIIYGPSCNGSDKVATQELPEMEPGKDWLLFPNMGAYTISMATNFNGFEERNHVIYTLPLKSTKIIQIPKSIECNSVPSLNGIPHYA"}},
  "substrate": "NCCC[C@H](N)C(=O)O",
  "assay": "purified protein",
  "details": "200 uM PLP, 12.5 mM DTT, 250 mM Tris pH 7.5, 37 °C, 0.002% BRIJ-35 added, enzyme unstable, low activity",
  "data": [
    {"protein": "B1", "values": [
      {"measurement": "Km", "result": 1500, "unit": "µM"}
    ]}
  ]
}
